Blank lines part the entries; values can stand above or below the binder they belong to.
Assays:
Experiment in all cases: holdup assay
Design in all cases: key: below the threshold = too weak to quantify, mostly under pKd 3.1 to 4
[1] = target: T1, DLG3_1, Q92796
T1 sequence (Q92796 125-227, limits assumed, looked up): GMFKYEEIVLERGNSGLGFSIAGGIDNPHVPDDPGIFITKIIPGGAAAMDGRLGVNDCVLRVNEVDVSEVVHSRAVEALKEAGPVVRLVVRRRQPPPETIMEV

[2] = target: T2, DLG3_2, Q92796
T2 sequence (Q92796 221-321, limits assumed, looked up): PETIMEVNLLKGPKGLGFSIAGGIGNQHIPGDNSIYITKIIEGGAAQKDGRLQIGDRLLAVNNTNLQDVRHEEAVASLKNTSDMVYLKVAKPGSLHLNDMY

[3] = target: DLG4_1, P78352
Sequence of DLG4_1, P78352 (P78352 62-152): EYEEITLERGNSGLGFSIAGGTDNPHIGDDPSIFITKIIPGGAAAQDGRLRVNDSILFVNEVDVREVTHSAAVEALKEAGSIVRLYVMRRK

[4] = target: T3, FRMPD1, Q5SYB0
T3 sequence (Q5SYB0 52-145, limits assumed, looked up): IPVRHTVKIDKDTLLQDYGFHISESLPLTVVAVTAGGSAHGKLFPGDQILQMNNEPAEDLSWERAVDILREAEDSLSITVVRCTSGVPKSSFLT

[5] = target: FRMPD2_1, Q68DX3
Sequence of FRMPD2_1, Q68DX3 (Q68DX3 770-861): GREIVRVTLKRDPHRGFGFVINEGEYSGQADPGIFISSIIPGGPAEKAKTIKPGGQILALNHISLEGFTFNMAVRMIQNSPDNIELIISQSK

[6] = target: FRMPD2_2, Q68DX3
Sequence of FRMPD2_2, Q68DX3 (Q68DX3 944-1038): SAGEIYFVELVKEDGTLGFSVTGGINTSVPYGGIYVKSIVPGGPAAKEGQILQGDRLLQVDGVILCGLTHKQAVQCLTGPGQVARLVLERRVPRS

[7] = target: GOPC, Q9HD26
[8] = target: GORASP2, Q9H8Y8
[9] = target: T4, GRIP1_5, Q9Y3R0
T4 sequence (Q9Y3R0 568-668, limits assumed, looked up): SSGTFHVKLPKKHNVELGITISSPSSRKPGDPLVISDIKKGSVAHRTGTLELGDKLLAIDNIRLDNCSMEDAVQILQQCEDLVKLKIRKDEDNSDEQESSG

[10] = target: HTRA2, O43464
Sequence of HTRA2, O43464 (O43464 355-458): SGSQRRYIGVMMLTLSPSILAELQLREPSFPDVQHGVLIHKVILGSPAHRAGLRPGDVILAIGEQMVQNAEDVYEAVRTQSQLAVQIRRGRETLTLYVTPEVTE

[11] = target: Inadl_3, Q8NI35
Sequence of Inadl_3, Q8NI35 (Q8NI35 359-469): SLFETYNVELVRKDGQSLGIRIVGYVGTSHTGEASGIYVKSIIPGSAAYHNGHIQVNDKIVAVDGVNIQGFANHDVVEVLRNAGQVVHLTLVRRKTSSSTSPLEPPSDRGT

[12] = target: Inadl_6, Q8NI35
Sequence of Inadl_6, Q8NI35 (Q8NI35 1058-1167): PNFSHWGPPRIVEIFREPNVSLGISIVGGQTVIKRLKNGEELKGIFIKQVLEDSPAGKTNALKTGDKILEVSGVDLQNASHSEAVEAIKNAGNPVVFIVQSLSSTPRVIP

[13] = target: Inadl_8, Q8NI35
Sequence of Inadl_8, Q8NI35 (Q8NI35 1425-1530): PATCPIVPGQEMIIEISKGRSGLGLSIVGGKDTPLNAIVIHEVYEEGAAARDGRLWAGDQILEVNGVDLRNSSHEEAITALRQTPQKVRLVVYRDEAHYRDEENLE

[14] = target: T5, LNX2_2, Q8N448
T5 sequence (Q8N448 334-432, limits assumed, looked up): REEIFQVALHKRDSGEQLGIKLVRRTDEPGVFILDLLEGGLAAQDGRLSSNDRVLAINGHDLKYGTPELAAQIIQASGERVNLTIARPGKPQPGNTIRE

[15] = target: MAGI2_4, Q86UL8
Sequence of MAGI2_4, Q86UL8 (Q86UL8 772-865): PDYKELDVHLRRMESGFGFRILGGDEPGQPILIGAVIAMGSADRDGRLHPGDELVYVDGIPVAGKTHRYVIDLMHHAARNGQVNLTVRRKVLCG

[16] = target: MAGI2_5, Q86UL8
Sequence of MAGI2_5, Q86UL8 (Q86UL8 915-1017): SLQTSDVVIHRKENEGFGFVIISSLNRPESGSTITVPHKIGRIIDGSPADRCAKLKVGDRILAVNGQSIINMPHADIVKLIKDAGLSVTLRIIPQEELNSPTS

[17] = target: MAST1, Q9Y2H9
Sequence of MAST1, Q9Y2H9 (Q9Y2H9 962-1065): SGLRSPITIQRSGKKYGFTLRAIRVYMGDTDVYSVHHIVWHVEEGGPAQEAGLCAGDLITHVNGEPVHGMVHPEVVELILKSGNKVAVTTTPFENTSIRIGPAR

[18] = target: MAST2, Q6P0Q8
Sequence of MAST2, Q6P0Q8 (Q6P0Q8 1099-1202): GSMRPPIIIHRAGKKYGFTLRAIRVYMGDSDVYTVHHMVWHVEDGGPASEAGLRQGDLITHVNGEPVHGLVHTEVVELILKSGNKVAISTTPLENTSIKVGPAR

[19] = target: T6, MPDZ_12, O75970
T6 sequence (O75970 1857-1958, limits assumed, looked up): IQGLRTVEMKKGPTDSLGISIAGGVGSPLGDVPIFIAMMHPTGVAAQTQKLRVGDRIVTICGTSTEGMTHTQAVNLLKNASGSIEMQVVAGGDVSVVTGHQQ

[20] = target: T7, PARD3B_1, Q8TEW8
T7 sequence (Q8TEW8 196-299, limits assumed, looked up): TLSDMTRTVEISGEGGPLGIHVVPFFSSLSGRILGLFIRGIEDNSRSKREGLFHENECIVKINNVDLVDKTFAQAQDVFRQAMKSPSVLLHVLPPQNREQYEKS

[21] = target: PICK1, Q9NRD5
Sequence of PICK1, Q9NRD5 (Q9NRD5 17-115): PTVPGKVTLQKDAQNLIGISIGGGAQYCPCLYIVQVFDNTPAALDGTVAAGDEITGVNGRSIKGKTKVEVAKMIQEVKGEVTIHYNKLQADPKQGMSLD

[22] = target: PTPN3, P26045
Sequence of PTPN3, P26045 (P26045 505-587): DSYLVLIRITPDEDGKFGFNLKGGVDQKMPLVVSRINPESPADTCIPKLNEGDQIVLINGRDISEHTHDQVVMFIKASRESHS

[23] = target: T8, RAPGEF6, Q8TEU7
T8 sequence (Q8TEU7 525-625, limits assumed, looked up): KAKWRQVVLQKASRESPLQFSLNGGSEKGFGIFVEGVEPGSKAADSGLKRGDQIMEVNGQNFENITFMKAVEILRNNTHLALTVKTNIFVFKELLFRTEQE

[24] = target: SCRIB_3, Q14160
Sequence of SCRIB_3, Q14160 (Q14160 999-1103): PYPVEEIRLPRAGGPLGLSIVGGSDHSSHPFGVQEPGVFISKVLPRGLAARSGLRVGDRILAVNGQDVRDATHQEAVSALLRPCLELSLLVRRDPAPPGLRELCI

[25] = target: T9, SNTB1, Q13884
T9 sequence (Q13884 107-205, limits assumed, looked up): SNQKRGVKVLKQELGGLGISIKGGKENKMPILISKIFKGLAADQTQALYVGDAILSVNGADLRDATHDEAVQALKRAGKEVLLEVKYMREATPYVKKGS

[26] = target: TJP2_1, Q9UDY2
Sequence of TJP2_1, Q9UDY2 (Q9UDY2 24-128): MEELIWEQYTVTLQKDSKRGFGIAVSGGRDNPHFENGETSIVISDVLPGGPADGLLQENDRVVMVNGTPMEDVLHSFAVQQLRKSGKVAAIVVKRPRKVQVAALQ

[27] = target: T10, TX1BP3, O14907
T10 sequence (O14907 10-122, limits assumed, looked up): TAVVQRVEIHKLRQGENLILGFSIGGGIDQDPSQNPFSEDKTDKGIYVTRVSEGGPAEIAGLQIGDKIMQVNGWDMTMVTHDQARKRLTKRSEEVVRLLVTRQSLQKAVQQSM

[28] = plain residues with an end cap or a label only (N-terminal biotin on a linker: ado-ado)
[29] = modified: phospho on S at position -3 from the C-terminal residue
[30] = modified: acetyl on K at position -1 from the C-terminal residue

B3: GLA, P06280 (peptide)
chain: TMQMSLKDLL
- pKd [1, 28]: 3.56
- pKd [2, 28]: below the threshold
- pKd [3, 28]: below the threshold
- pKd [4, 28]: below the threshold
- pKd [5, 28]: below the threshold
- pKd [6, 28]: below the threshold
- pKd [7, 28]: 3.49
- pKd [8, 28]: 3.51
- pKd [9, 28]: 3.51
- pKd [10, 28]: below the threshold
- pKd [11, 28]: below the threshold
- pKd [12, 28]: below the threshold
- pKd [13, 28]: below the threshold
- pKd [14, 28]: below the threshold
- pKd [15, 28]: 3.53
- pKd [16, 28]: below the threshold
- pKd [17, 28]: 4.03
- pKd [18, 28]: 4.19
- pKd [19, 28]: below the threshold
- pKd [20, 28]: 3.93
- pKd [21, 28]: below the threshold
- pKd [22, 28]: 4.07
- pKd [23, 28]: 3.69
- pKd [24, 28]: below the threshold
- pKd [25, 28]: below the threshold
- pKd [26, 28]: below the threshold
- pKd [27, 28]: below the threshold

B4: PTEN_Ac, P60484 (peptide)
chain: DEDQHTQITKV
- pKd [1, 30]: below the threshold
- pKd [2, 30]: 4.56
- pKd [3, 30]: 3.98
- pKd [4, 30]: below the threshold
- pKd [5, 30]: below the threshold
- pKd [6, 30]: 4.58
- pKd [7, 30]: 4.19
- pKd [8, 30]: 4.06
- pKd [9, 30]: below the threshold
- pKd [10, 30]: below the threshold
- pKd [11, 30]: below the threshold
- pKd [12, 30]: 4.37
- pKd [13, 30]: 4.82
- pKd [14, 30]: 5.03
- pKd [15, 30]: 3.87
- pKd [16, 30]: 4.88
- pKd [17, 30]: 4.66
- pKd [18, 30]: 5.14
- pKd [19, 30]: below the threshold
- pKd [20, 30]: below the threshold
- pKd [21, 30]: 3.75
- pKd [22, 30]: 4.2
- pKd [23, 30]: below the threshold
- pKd [24, 30]: 3.74
- pKd [25, 30]: 4.79
- pKd [26, 30]: 3.96
- pKd [27, 30]: 3.74

Results, then the binder that gave them:

- pKd [1, 28]: below the threshold
- pKd [2, 28]: below the threshold
- pKd [3, 28]: below the threshold
- pKd [4, 28]: below the threshold
- pKd [5, 28]: below the threshold
- pKd [6, 28]: below the threshold
- pKd [7, 28]: below the threshold
- pKd [8, 28]: below the threshold
- pKd [9, 28]: below the threshold
- pKd [10, 28]: below the threshold
- pKd [11, 28]: below the threshold
- pKd [12, 28]: below the threshold
- pKd [13, 28]: below the threshold
- pKd [14, 28]: below the threshold
- pKd [15, 28]: below the threshold
- pKd [16, 28]: below the threshold
- pKd [17, 28]: below the threshold
- pKd [18, 28]: 3.92
- pKd [19, 28]: below the threshold
- pKd [20, 28]: 3.84
- pKd [21, 28]: below the threshold
- pKd [22, 28]: below the threshold
- pKd [23, 28]: below the threshold
- pKd [24, 28]: below the threshold
- pKd [25, 28]: below the threshold
- pKd [26, 28]: below the threshold
- pKd [27, 28]: below the threshold
B1: GRIP1, Q9Y3R0 (peptide)
chain: LETREPTNTL

- pKd [1, 29]: below the threshold
- pKd [2, 29]: below the threshold
- pKd [3, 29]: below the threshold
- pKd [4, 29]: below the threshold
- pKd [5, 29]: below the threshold
- pKd [6, 29]: below the threshold
- pKd [7, 29]: below the threshold
- pKd [8, 29]: 3.56
- pKd [9, 29]: below the threshold
- pKd [10, 29]: 3.75
- pKd [11, 29]: below the threshold
- pKd [12, 29]: below the threshold
- pKd [13, 29]: below the threshold
- pKd [14, 29]: below the threshold
- pKd [15, 29]: below the threshold
- pKd [16, 29]: below the threshold
- pKd [17, 29]: below the threshold
- pKd [18, 29]: 4.21
- pKd [19, 29]: below the threshold
- pKd [20, 29]: 4.62
- pKd [21, 29]: below the threshold
- pKd [22, 29]: 4.51
- pKd [23, 29]: below the threshold
- pKd [24, 29]: 4.35
- pKd [25, 29]: 4.39
- pKd [26, 29]: 3.57
- pKd [27, 29]: below the threshold
B2: RPS6KA1_-3P, Q15418 (peptide)
chain: RRVRKLPSTTL

Reference: article PMC9482650, “Quantitative fragmentomics allow affinity mapping of interactomes” (Nature Communications, 2022)
